Assay results from patent US20160024213A1 (VIB VZW, published 2016).

T1: Recombinant mouse MMR (R&D Systems) (mouse, UniProt Q61830 20-1388)
T1 construct: Bought from R&D Systems; Immobilised on CM5 chip (SPR) or coated on plates (ELISA); also called mMMR; recombinant mMMR
T1 sequence: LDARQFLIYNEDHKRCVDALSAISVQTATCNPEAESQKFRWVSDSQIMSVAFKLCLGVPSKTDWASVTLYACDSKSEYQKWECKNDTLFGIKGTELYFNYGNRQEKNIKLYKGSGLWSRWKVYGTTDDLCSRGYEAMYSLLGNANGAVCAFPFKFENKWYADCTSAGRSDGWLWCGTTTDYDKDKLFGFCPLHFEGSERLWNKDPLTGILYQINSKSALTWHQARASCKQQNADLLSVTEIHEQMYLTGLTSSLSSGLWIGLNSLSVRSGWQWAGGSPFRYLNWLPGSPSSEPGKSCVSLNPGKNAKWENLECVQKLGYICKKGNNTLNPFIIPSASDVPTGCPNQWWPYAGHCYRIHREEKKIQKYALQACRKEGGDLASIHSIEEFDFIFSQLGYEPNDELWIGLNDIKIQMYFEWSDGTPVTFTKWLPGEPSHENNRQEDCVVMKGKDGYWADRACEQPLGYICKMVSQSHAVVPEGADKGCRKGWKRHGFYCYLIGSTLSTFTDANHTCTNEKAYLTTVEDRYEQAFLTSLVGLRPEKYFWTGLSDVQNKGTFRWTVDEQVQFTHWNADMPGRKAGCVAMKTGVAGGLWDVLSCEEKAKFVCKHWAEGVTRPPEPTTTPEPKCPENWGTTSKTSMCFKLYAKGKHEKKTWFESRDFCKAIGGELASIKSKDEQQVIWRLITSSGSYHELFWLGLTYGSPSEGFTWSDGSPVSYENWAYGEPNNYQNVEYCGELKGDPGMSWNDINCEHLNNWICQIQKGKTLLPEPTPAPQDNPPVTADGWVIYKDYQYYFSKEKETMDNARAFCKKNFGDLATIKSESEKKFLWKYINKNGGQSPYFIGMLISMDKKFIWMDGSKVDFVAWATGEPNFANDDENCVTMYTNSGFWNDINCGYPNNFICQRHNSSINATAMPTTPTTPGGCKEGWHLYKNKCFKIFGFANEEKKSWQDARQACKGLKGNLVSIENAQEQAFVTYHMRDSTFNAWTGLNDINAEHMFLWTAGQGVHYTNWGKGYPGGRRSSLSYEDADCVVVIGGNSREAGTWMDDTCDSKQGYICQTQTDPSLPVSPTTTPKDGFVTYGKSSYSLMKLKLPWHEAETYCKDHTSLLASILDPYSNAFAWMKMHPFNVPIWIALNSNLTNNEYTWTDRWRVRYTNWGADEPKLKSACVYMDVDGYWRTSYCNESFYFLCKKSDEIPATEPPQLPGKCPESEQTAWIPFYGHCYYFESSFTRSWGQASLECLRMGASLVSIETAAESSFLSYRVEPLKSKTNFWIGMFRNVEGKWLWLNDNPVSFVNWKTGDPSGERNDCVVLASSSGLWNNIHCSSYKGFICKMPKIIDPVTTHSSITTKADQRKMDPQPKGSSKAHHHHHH

T2: Recombinant human MMR (R&D Systems) (human, UniProt P22897 19-1383)
T2 construct: Bought from R&D Systems; also called hMMR; recombinant hMMR
T2 sequence: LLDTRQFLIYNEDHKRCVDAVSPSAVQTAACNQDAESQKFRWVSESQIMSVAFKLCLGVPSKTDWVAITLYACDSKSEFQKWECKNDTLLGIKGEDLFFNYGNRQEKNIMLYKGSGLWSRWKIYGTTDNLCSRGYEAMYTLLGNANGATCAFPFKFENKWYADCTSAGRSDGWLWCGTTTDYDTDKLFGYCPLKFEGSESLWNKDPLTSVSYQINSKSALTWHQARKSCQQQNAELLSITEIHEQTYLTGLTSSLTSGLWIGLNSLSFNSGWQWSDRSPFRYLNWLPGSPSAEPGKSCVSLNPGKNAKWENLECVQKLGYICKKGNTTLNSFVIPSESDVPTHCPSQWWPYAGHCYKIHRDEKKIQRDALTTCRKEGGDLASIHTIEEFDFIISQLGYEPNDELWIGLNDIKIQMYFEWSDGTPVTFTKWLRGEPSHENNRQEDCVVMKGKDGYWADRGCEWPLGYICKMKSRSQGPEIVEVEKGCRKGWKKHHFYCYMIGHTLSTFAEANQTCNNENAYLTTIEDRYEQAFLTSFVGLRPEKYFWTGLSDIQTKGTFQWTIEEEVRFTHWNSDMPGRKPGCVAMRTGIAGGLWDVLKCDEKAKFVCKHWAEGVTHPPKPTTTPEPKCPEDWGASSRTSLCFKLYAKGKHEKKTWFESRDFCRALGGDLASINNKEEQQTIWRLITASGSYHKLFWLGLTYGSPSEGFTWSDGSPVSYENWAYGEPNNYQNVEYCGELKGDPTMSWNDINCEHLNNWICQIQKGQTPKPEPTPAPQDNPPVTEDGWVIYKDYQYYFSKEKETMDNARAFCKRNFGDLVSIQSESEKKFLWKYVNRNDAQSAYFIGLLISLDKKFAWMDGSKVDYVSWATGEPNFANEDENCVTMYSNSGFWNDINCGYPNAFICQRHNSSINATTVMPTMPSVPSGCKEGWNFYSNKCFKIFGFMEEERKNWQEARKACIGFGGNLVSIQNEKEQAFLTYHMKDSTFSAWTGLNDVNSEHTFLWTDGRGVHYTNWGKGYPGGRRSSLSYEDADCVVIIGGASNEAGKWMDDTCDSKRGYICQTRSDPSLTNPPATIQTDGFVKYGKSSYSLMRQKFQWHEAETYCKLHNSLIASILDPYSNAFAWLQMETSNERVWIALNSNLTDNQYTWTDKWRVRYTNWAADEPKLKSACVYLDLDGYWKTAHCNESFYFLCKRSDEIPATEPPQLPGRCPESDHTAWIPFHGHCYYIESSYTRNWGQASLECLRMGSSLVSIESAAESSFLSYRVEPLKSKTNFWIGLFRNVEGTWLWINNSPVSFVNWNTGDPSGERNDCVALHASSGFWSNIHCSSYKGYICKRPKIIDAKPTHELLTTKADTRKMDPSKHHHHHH

B1: Bivalent anti-MMR Nanobody 1 with human IgA hinge linker (VHH)
chain: QVQLQESGGGLVQPGGSLRLSCAASGNIFSINAIGWYRQAPGKQRELVATITLSGSTNYADSVKGRFSISRDNAKNTVYLQMNSLKPEDTAVYYCNANTYSDSDVYGYWGQGTQVTVSSSPSTPPTPSPSTPPASQVQLQESGGGLVQPGGSLRLSCAASGNIFSINAIGWYRQAPGKQRELVATITLSGSTNYADSVKGRFSISRDNAKNTVYLQMNSLKPEDTAVYYCNANTYSDSDVYGYWGQGTQVTVSSHHHHHH
notes: Bivalent tandem of two clone 1 VHH domains in one chain; also called biv MMR linker 3 IgA; MMR biv IgA
B2: Bivalent anti-MMR Nanobody 1 with llama IgG2 hinge linker (VHH)
chain: QVQLQESGGGLVQPGGSLRLSCAASGNIFSINAIGWYRQAPGKQRELVATITLSGSTNYADSVKGRFSISRDNAKNTVYLQMNSLKPEDTAVYYCNANTYSDSDVYGYWGQGTQVTVSSAHHSEDPSSKAPKAPMAQVQLQESGGGLVQPGGSLRLSCAASGNIFSINAIGWYRQAPGKQRELVATITLSGSTNYADSVKGRFSISRDNAKNTVYLQMNSLKPEDTAVYYCNANTYSDSDVYGYWGQGTQVTVSSHHHHHH
notes: Bivalent tandem of two clone 1 VHH domains in one chain; also called biv MMR linker 2 g2c; MMR biv g2c
B3: Bivalent anti-MMR Nanobody 1 with (Gly4Ser)3 linker (VHH)
chain: QVQLQESGGGLVQPGGSLRLSCAASGNIFSINAIGWYRQAPGKQRELVATITLSGSTNYADSVKGRFSISRDNAKNTVYLQMNSLKPEDTAVYYCNANTYSDSDVYGYWGQGTQVTVSSGGGGSGGGGSGGGGSQVQLQESGGGLVQPGGSLRLSCAASGNIFSINAIGWYRQAPGKQRELVATITLSGSTNYADSVKGRFSISRDNAKNTVYLQMNSLKPEDTAVYYCNANTYSDSDVYGYWGQGTQVTVSSHHHHHH
notes: Bivalent tandem of two clone 1 VHH domains in one chain; also called biv MMR linker 1 GS; MMR biv (Gly4Ser)3
B4: Anti-MMR Nanobody clone 1 (VHH)
VHH: QVQLQESGGGLVQPGGSLRLSCAASGNIFSINAIGWYRQAPGKQRELVATITLSGSTNYADSVKGRFSISRDNAKNTVYLQMNSLKPEDTAVYYCNANTYSDSDVYGYWGQGTQVTVSS
notes: 99mTc-labelled at the His tail in the in vivo experiments; also called Anti-MMR Nb1; Nb MMR cl1
B5: Anti-MMR Nanobody clone 3 (VHH)
VHH: QVQLQESGGGLVQAGGSLRLSCAASGRTFSRDAMGWFRQAPGKEREFVAGISWSGGSTYYADSVKGRFTISRDGAKNTVNLQMNSLKPEDTAVYYCAASSIYGSAVVDGLYDYWGQGTQVTVSS
notes: Monovalent, His-tagged; also called Anti-MMR Nb3; Nb clone 3

target: T1, Recombinant mouse MMR (R&D Systems); assay: SPR, immobilised recombinant MMR
Method: (§1) Affinity analysis was performed using a BIAcore T100 (GE Healthcare) with HEPES-buffered saline running buffer (10 mM HEPES with 0.15 M NaCl, 3.4 mM EDTA and 0.005% surfactant P20 at pH 7.4). MRR was immobilized on a CM5 chip in acetate buffer 50 mM (pH 5.0), resulting in 2100 RU MMR coated on the chip. A second channel on the same chip was activated/deactivated in a similar way and served as a negative control. The MMR Nanobodies were used as analytes in 11 different concentrations, ranging from 1 to 2000 nM, at a flow rate of […]. Glycine-HCl 50 mM (pH 2.0) was used for elution. The kinetic and equilibrium parameters (kd, ka and KD) values were calculated from the combined sensogram of all concentrations using BIAcore T100 evaluation software 2.02 (GE Healthcare).
Bivalent Nanobodies were constructed by linking two anti-MMR Nanobody 1 entities using (G₄S)₃ ([…]; SEQ ID NO:151), llama IgG2 hinge ([…]; SEQ ID NO:152) or human IgA hinge ([…] SEQ ID NO:153) linkers. […] As a negative control Nanobody in all experiments, we consistently used α-BCII10 Nb, which is a binder of the β-lactamase BCII enzyme of Bacillus cereus.

| Binder | fold increase in KD (so in the source) compared to the monovalent clone 1 Nanobody [fold] |
| --- | --- |
| B1 | 3 |
| B2 | 3 |
| B3 | 3 |

target: T1, Recombinant mouse MMR (R&D Systems); assay: SPR, BIAcore T100, mouse MMR on CM5 chip
Method: as §1
(§2) The binding characteristics and affinity of selected Nbs towards the recombinant hMMR and recombinant mMMR antigen was examined in further detail using surface plasmon resonance. A combined sensogram was recorded for each Nb (example for NbhmMMRm3.49 in FIG. 7) and the kinetic and equilibrium parameters (kd, ka and KD) values were calculated (Table 8 and Table 9). Most but not all results on binding to mouse or human rMMR obtained via this SPR analysis are in agreement with the results obtained by PE-ELISA.

| Binder | koff [s⁻¹] | kon [M⁻¹ s⁻¹] |
| --- | --- | --- |
| B4 | 0.0133 | 576000 |
| B5 | 0.0186 | 97300 |

target: T2, Recombinant human MMR (R&D Systems); assay: SPR, BIAcore T100, human MMR on CM5 chip
Method: as §1, §2

| Binder | binding result |
| --- | --- |
| B4 | no binding (tested: analyte 1 to 2000 nM) |
| B5 | no binding (tested: analyte 1 to 2000 nM) |

target: T1, Recombinant mouse MMR (R&D Systems); assay: SPR, BIAcore T100, MMR on CM5 chip, Nanobody as analyte
Method: as §1
Anti-CD206 (anti-MMR) Nanobodies (Nbs), which are the smallest available antigen-binding entities, were created in order to target MMR-positive cells in vivo. Nanobodies were raised against the recombinant extracellular portion of MMR, as described in the Materials and Methods (see also Table 1). The binding characteristics of the monovalent anti-MMR Nanobodies were compared using surface Plasmon resonance (SPR) measurements (Table 2).

| Binder | koff [s⁻¹] | kon [M⁻¹ s⁻¹] |
| --- | --- | --- |
| B1 | 0.00428 | 913000 |
| B2 | 0.00411 | 1.02e+06 |
| B4 | 0.0133 | 576000 |
| B5 | 0.0186 | 97300 |
| B3 | 0.0044 | 1.04e+06 |
